In the experiment the target is Purified recombinant HuFCRN/B2MG, biotinylated (human) (UniProt P55899). In words: BLI (ForteBio Octet); biotinylated HuFCRN/B2MG on SA biosensors. (In BLI a coated tip is dipped into the sample, and binding shifts an interference pattern.)
UniProt P55899, sequence (P55899 24-297 limits assumed, chain 1 of 2): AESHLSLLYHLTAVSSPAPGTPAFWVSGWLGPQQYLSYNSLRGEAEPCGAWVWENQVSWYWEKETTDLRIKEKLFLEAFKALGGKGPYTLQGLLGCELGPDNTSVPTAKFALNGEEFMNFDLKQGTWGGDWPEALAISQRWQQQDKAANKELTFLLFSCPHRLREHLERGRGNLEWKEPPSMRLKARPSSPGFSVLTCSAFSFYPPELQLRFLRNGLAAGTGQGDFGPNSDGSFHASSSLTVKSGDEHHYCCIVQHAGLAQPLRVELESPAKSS
UniProt P55899, sequence (P61769 21-119 limits assumed, chain 2 of 2, further chain): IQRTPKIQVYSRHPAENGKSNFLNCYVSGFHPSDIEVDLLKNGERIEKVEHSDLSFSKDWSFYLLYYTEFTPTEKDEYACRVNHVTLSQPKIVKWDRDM

As a reminder, the Kd is the equilibrium constant for the complex coming apart. With “RITUXAN (Genentech), non-fused anti-CD20Ab (antibody)”, the Kd worked out at 0.0697 µM.
